The values that follow come from article PMC4660213, “Identification and characterization of multiple rubisco activases in chemoautotrophic bacteria” (Nature Communications, 2015).

For assay [1], the target named is Acidithiobacillus ferrooxidans form I rubisco (L8S8) (Acidithiobacillus ferrooxidans ATCC 23270) (UniProt B7JA24).
The target of assay [2] is Acidithiobacillus ferrooxidans CbbQ2 (Acidithiobacillus ferrooxidans ATCC 23270) (UniProt B7J5E4). The assay can be described thus: SEC + other: glycerol gradient sedimentation; combined Stokes radius/sedimentation analysis: Stokes radius from gel filtration, Svedberg coefficient from 5–30% glycerol gradients in buffer A (1 mg/ml, 35,000 r.p.m., 16 h, 4 °C); M=4,205 (SRs). Background: Size exclusion chromatography separates by hydrodynamic size, large species first.

The target is the same in assay [3]. Briefly: quantitative densitometry of SDS-PAGE; Coomassie-stained SDS–PAGE of the purified complexes (4 µg per lane), assuming equal binding of the dye.
Assay [4] shares this target.
The target of assay [5] is Acidithiobacillus ferrooxidans form II rubisco (Acidithiobacillus ferrooxidans ATCC 23270) (UniProt B7J5E3).
The target of assay [6] is AfM with E75 mutated to alanine (Acidithiobacillus ferrooxidans ATCC 23270).

In turn, “CbbQ1-CbbO1 hetero-oligomer (CbbQ6CbbO1) (complex)” displayed a stimulation of Q1O1 ATPase activity (0.27 µM oligomer) by saturating concentrations of stably inhibited AfLS (ER, ECMC) in assay [1] of 2 fold.
For the substance “C-terminally truncated CbbO2 (residues 1–444) (domain or fragment)”, the stoichiometry N (CbbO fragment per CbbQ hexamer) in assay [2] was determined as 1. Besides, the stoichiometry N (CbbO fragments per 6 CbbQ subunits) in assay [3] worked out at 3.5. In addition, the basal ATPase activity of the Q2O2ΔC444 complex (min^−1 protomer CbbQ^−1) in assay [4] was less than 1.
With “CbbQ2-CbbO2 hetero-oligomer (CbbQ6CbbO1) (complex)”, the stimulation of Q2O2 ATPase activity (0.27 µM oligomer) by saturating concentrations of stably inhibited AfM (ER, ECMC) in assay [5] is 20 fold. This substance came in with a rubisco activase activity of Q2O2 on AfM with E75 mutated to alanine in assay [6] of 80 % reduction.
